According to paper PMC7337937, “CryoEM structures of human CMG–ATPγS–DNA and CMG–AND-1 complexes” (Nucleic Acids Research, 2020):

How the values were obtained:
[1] = molecular target: human CMG helicase (Cdc45-MCM2-7-GINS) (Homo sapiens, UniProt O75419;P49736;P25205-2;P33991;P33992;Q14566;P33993;Q14691;Q9Y248;Q9BRX5;Q9BRT9 …); assay: cryo-EM structure (3.29 A); 100 uM ATPgS, 5 mM Mg acetate; ATPgS-Mg2+ at MCM6, MCM4, MCM7; ADP at MCM2, MCM3; MCM5 apo; Buffer S: 25 mM HEPES pH 7.5, 50 mM KCl, 5 mM Mg acetate, 2 mM DTT, with 100 uM ATPgS and 4 uM fork DNA, loaded on StrepTrap-bound CMG; eluted with 15 mM desthiobiotin; binding temperature not stated; details: protein: recombinant; tags: MCM4 N-terminal His8-TEV; Psf2 C-terminal TEV-2xStrepII; copies: 1;1;1;1;1;1;1;1;1;1;1; fork: 40 bp duplex 1:1-40 2:31-70; 30 nt unpaired tails, 3' poly-dT (strand 1) and 5' GC-rich (strand 2)
[2] = molecular target: the molecule itself; assay: cryo-EM structure; CMGA: AND-1 co-expressed with the CMG subunits in HEK293-F, co-purified; 1 mM ATPγS added, glutaraldehyde cross-linked before grid preparation; 6.77 Å map, CMG structure and AND-1 trimer crystal structure docked as rigid bodies

Binder | binding result [1] | stoichiometry N [2]
fork DNA (70T/70GC) (mixed) DNA 1: CGTTTTACAACGTCGTGACTGGGCACTTGATCGGCCAACCTTTTTTTTTTTTTTTTTTTTTTTTTTTTTT DNA 2: CAGGCAGGCAGGCAGGCAGGCAGGCAGGCAGGTTGGCCGATCAAGTGCCCAGTCACGACGTTGTAAAACG | binds | –
human AND-1, recombinant full length (natural protein, UniProt O75717 1-1129, looked up, AND-1, human, full-length ORF from IMAGE cDNA clone 6514641; The tag is 2xStrepII-TEV; no TEV cleavage step is described; Only the SepB domain is visible in the map; also called AND-1 trimer; source: HEK293-F, transient co-transfection with the CMG subunits, co-purified as CMGA) MPATRKPMRYGHTEGHTEVCFDDSGSFIVTCGSDGDVRIWEDLDDDDPKFINVGEKAYSCALKSGKLVTAVSNNTIQVHTFPEGVPDGILTRFTTNANHVVFNGDGTKIAAGSSDFLVKIVDVMDSSQQKTFRGHDAPVLSLSFDPKDIFLASASCDGSVRVWQISDQTCAISWPLLQKCNDVINAKSICRLAWQPKSGKLLAIPVEKSVKLYRRESWSHQFDLSDNFISQTLNIVTWSPCGQYLAAGSINGLIIVWNVETKDCMERVKHEKGYAICGLAWHPTCGRISYTDAEGNLGLLENVCDPSGKTSSSKVSSRVEKDYNDLFDGDDMSNAGDFLNDNAVEIPSFSKGIINDDEDDEDLMMASGRPRQRSHILEDDENSVDISMLKTGSSLLKEEEEDGQEGSIHNLPLVTSQRPFYDGPMPTPRQKPFQSGSTPLHLTHRFMVWNSIGIIRCYNDEQDNAIDVEFHDTSIHHATHLSNTLNYTIADLSHEAILLACESTDELASKLHCLHFSSWDSSKEWIIDLPQNEDIEAICLGQGWAAAATSALLLRLFTIGGVQKEVFSLAGPVVSMAGHGEQLFIVYHRGTGFDGDQCLGVQLLELGKKKKQILHGDPLPLTRKSYLAWIGFSAEGTPCYVDSEGIVRMLNRGLGNTWTPICNTREHCKGKSDHYWVVGIHENPQQLRCIPCKGSRFPPTLPRPAVAILSFKLPYCQIATEKGQMEEQFWRSVIFHNHLDYLAKNGYEYEESTKNQATKEQQELLMKMLALSCKLEREFRCVELADLMTQNAVNLAIKYASRSRKLILAQKLSELAVEKAAELTATQVEEEEEEEDFRKKLNAGYSNTATEWSQPRFRNQVEEDAEDSGEADDEEKPEIHKPGQNSFSKSTNSSDVSAKSGAVTFSSQGRVNPFKVSASSKEPAMSMNSARSTNILDNMGKSSKKSTALSRTTNNEKSPIIKPLIPKPKPKQASAASYFQKRNSQTNKTEEVKEENLKNVLSETPAICPPQNTENQRPKTGFQMWLEENRSNILSDNPDFSDEADIIKEGMIRFRVLSTEERKVWANKAKGETASEGTEAKKRKRVVDESDETENQEEKAKENLNLSKKQKPLDFSTNQKLSAFAFKQE | – | 3
